Measured values from patent US20100160262.

Biological target: enzymatically [3H] acetylated histone H3 peptide (amino acids 1-24) (UniProt P68431)

human SIRT2 with a C-terminal FLAG tag
standard histone deacetylase assay (radioactive, H3 peptide substrate): These enzymes also deacetylate histones as determined in a standard histone deacetylase assay
